Results: article PMC3411929 (Journal of structural biology, 2012)

Molecular target: the molecule itself
Test: SEC

B1: human spastin amino acids 228-616 containing the E442Q mutation (domain or fragment, UniProt Q9UBP0 228-616, looked up)
chain: ESGAVPKRKDPLTHTSNSLPRSKTVMKTGSAGLSGHHRAPSYSGLSMVSGVKQGSGPAPTTHKGTPKTNRTNKPSTPTTATRKKKDLKNFRNVDSNLANLIMNEIVDNGTAVKFDDIAGQDLAKQALQEIVILPSLRPELFTGLRAPARGLLLFGPPGNGKTMLAKAVAAESNATFFNISAASLTSKYVGEGEKLVRALFAVARELQPSIIFIDQVDSLLCERREGEHDASRRLKTEFLIEFDGVQSAGDDRVLVMGATNRPQELDEAVLRRFIKRVYVSLPNEETRLLLLKNLLCKQGSPLTQKELAQLARMTDGYSGSDLTALAKDAALGPIRELKPEQVKNMSASEMRNIRLSDFTESLKKIKRSVSPQTLEAYIRWNKDFGDTTV
Question: For B1, which “stoichiometry N” value is on record?
Answer: 6
